Here are results for 2 molecules from PMC11089037, “Structural basis of negative regulation of CRISPR-Cas7-11 by TPR-CHAT”.

In one data set the target is DiCas7-11Inactive (Desulfonema ishimotonii, UniProt A0A401FT36 1-1601, D429A;D654A). Briefly: cryo-EM; pre-crRNA at 1:2 molar ratio; target RNA not seen in the map; EMSA: 40 mM Tris-HCl pH 7.5, 60 mM NaCl, 6 mM MgCl2, 30 min at 4 C; 15% native PAGE; cryo-EM samples: 20 mM HEPES-NaOH pH 8.0, 300 mM NaCl, 0.5 mM DTT. Particulars: protein: recombinant; tags: N-terminal 8xHis-SUMO-TEV.

In another data set the target is DiCas7-11;DiTPR-CHAT NTD (Desulfonema ishimotonii;Desulfonema …, UniProt A0A401FT36;A0A401FT52 1-1601;1-65, |). Briefly: cryo-EM; with TPR-CHAT NTD; EMSA: 40 mM Tris-HCl pH 7.5, 60 mM NaCl, 6 mM MgCl2, 30 min at 4 C; 15% native PAGE; cryo-EM samples: 20 mM HEPES-NaOH pH 8.0, 300 mM NaCl, 0.5 mM DTT. Particulars: protein: recombinant;recombinant; tags: N-terminal 8xHis-SUMO-TEV;C-terminal 2xStrep; copies: 1;1; single strand, V-shaped 5' repeat.

For a further data set, the target named is DiCas7-11 (Desulfonema ishimotonii, UniProt A0A401FT36 1-1601). Briefly: cryo-EM; EMSA: 40 mM Tris-HCl pH 7.5, 60 mM NaCl, 6 mM MgCl2, 30 min at 4 C; 15% native PAGE; cryo-EM samples: 20 mM HEPES-NaOH pH 8.0, 300 mM NaCl, 0.5 mM DTT. Particulars: protein: recombinant; tags: N-terminal 8xHis-SUMO-TEV; single strand, V-shaped 5' repeat.
The target of another data set is DiCas7-11;DiTPR-CHAT (Desulfonema ishimotonii;Desulfonema …, UniProt A0A401FT36;A0A401FT52 1-1601;1-751, |). Briefly: cryo-EM; with full-length TPR-CHAT; EMSA: 40 mM Tris-HCl pH 7.5, 60 mM NaCl, 6 mM MgCl2, 30 min at 4 C; 15% native PAGE; cryo-EM samples: 20 mM HEPES-NaOH pH 8.0, 300 mM NaCl, 0.5 mM DTT. Particulars: protein: recombinant;recombinant; tags: N-terminal 8xHis-SUMO-TEV;C-terminal 2xStrep; copies: 1;1; single strand, V-shaped 5' repeat.
Sequence of DiCas7-11;DiTPR-CHAT (chain, as listed by the source |, chain 1 of 2): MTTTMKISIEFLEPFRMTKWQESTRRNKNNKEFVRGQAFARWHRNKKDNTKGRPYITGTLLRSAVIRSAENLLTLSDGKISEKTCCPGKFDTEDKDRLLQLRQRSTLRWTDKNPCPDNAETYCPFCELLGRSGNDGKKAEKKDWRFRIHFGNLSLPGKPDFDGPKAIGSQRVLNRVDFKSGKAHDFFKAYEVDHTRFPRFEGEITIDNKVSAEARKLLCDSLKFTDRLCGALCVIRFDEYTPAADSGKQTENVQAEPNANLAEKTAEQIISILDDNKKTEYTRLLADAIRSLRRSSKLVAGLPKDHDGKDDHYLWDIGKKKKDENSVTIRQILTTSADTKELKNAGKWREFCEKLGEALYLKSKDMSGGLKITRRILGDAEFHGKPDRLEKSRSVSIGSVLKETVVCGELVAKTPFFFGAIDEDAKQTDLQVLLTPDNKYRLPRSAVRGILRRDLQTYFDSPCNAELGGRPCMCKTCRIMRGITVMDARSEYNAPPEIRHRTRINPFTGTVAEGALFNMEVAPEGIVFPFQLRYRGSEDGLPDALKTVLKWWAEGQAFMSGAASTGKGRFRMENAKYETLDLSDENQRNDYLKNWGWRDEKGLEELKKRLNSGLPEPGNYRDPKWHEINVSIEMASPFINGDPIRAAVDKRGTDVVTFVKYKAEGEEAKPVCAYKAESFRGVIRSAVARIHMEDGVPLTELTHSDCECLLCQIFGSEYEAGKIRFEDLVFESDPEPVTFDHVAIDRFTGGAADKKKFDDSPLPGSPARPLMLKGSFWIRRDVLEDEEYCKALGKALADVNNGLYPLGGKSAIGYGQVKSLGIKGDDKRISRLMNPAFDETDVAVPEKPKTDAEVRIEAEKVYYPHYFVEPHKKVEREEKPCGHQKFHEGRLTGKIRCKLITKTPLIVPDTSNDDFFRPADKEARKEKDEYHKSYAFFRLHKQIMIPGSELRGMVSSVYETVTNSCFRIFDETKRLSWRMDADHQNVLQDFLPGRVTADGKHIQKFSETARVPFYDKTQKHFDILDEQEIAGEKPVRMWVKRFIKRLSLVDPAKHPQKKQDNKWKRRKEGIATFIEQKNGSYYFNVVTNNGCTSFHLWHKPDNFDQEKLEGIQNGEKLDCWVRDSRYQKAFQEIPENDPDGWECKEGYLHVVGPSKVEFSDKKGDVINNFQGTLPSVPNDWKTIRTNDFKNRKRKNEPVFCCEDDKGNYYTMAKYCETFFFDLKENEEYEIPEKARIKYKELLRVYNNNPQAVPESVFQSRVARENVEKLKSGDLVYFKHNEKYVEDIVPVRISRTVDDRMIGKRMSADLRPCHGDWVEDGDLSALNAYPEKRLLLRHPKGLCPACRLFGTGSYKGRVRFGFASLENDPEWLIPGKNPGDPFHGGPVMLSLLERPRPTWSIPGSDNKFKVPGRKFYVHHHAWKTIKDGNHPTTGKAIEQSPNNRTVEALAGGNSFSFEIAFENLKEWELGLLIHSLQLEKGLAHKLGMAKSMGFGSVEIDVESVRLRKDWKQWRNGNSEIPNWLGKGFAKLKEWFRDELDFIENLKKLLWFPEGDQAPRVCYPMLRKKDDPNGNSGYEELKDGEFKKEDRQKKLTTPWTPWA
Sequence of DiCas7-11;DiTPR-CHAT (chain, as listed by the source |, chain 2 of 2): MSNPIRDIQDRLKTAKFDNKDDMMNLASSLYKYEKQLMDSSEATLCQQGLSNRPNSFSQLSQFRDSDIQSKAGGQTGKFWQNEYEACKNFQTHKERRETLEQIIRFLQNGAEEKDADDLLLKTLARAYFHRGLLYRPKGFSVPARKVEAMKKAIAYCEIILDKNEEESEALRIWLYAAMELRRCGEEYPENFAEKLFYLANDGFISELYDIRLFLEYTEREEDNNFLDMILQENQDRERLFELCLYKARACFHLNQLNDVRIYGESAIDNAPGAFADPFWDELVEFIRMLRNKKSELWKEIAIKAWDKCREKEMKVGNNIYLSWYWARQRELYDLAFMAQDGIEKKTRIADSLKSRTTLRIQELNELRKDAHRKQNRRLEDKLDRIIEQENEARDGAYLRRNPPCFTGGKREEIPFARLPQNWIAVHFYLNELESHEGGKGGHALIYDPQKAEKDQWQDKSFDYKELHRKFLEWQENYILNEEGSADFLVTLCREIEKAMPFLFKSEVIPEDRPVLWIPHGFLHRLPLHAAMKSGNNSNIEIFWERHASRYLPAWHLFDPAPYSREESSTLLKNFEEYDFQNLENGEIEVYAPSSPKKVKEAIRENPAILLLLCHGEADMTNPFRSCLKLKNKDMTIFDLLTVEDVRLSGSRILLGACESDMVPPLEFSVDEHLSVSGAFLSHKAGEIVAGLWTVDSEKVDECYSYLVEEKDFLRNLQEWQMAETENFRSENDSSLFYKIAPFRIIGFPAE

Sequence of DiCas7-11 (A0A401FT36 entry or part of it): as the sequence (chain, as listed by the source |, chain 1 of 2) above
Sequence of DiCas7-11;DiTPR-CHAT NTD (chain, as listed by the source |, chain 1 of 2): as above
Sequence of DiCas7-11;DiTPR-CHAT NTD (chain, as listed by the source |, chain 2 of 2): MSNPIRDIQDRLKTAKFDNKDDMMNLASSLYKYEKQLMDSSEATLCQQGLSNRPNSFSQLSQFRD
Sequence of DiCas7-11Inactive (A0A401FT36 entry or part of it D429A;D654A): as the sequence (chain, as listed by the source |, chain 1 of 2) above, with D429A, D654A counted along it

B1: single spacer pre-crRNA (ssRNA)
RNA: GGUUGGAAAGCCGGUUUUCUUUGAUGUCACGGAACCUUUGUUGUCUUCGACAUGGGUAAUCCUCAU
Take B1: the binding result with DiCas7-11Inactive is “binds”.
In the case of UUGAUGUCACGGAACCUUUGUUGUCUUCGACAUGGGUA (structured_RNA) [mature crRNA in cryo-EM structures, U(-15)-A(23)], the binding result in the data set with DiCas7-11;DiTPR-CHAT NTD, in the data set with DiCas7-11 and with DiCas7-11;DiTPR-CHAT was “binds” each time.
